Test results: publication doi:10.1101/2025.11.15.688632

Molecular target: pseudo wild-type full-length CREB (unlabelled) (UniProt P16220)
Test: SEC-MALS

- stoichiometry N: 2
Substance: pseudo wild-type full-length CREB (unlabelled) (from UniProt P16220-2 1-327) (natural protein)
